Substitutions are numbered along the chain they refer to. In names and notes the source's numbering stands. Read-outs that look alike come from different tables or passages of the source.
T1: IL10RB (UniProt Q08334 20-325, limits assumed)
T1 sequence (looked up): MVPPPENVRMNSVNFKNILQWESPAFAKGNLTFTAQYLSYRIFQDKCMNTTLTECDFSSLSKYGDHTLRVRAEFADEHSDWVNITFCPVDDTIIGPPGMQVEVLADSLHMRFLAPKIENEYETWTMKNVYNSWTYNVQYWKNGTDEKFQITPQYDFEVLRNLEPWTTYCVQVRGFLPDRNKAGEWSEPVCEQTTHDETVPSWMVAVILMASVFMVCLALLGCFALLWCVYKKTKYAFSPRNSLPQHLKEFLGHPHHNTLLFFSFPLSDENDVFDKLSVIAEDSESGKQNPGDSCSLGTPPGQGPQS

T2: IL10RA (UniProt Q13651 22-578, limits assumed)
T2 sequence (looked up): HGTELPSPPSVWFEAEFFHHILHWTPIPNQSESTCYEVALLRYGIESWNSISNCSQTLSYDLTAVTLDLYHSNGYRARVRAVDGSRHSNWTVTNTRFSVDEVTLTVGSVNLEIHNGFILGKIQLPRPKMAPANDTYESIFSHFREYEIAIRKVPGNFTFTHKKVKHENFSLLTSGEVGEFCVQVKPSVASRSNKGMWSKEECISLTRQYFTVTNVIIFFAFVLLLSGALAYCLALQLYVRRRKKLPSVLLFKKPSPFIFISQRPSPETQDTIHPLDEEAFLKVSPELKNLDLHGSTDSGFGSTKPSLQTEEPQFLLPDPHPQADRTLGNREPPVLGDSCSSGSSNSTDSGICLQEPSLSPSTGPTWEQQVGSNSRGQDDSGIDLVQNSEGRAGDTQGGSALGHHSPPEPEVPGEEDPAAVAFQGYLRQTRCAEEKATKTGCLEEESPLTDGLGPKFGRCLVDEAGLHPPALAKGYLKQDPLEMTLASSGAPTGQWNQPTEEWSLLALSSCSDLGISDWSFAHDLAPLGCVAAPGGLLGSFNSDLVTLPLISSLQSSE

T3: IL-10 receptor (IL-10R: IL10RA and IL10RB) on HEK-Blue IL-10 reporter cells (UniProt Q13651 22-578; Q08334 20-325, limits assumed)
T3 sequence (looked up) 1: T2 sequence (looked up)
T3 sequence (looked up) 2: T1 sequence (looked up)

B1: ORK10-003-HiBit (ligand)
chain: MTQSENSCTHFPGNLPNMLRDLRDAFSRVKTFFQMKDQLDNLLLKESLLEDFKGYLGCQALSEMIQFYLEEVMPQAENQDPDIKAHVNSLGENLKTLRLRLRRCHRFLPCENKSKAVEQVKNAFNKLQEKGIYKAMSEFDIFINYIEAYLYKTITPEFANMLRDLRDAFSRVKTFFQMKDQLDNLLLKESLLEDFKGYLGCQALSEMIQFYLEEVMPQAENQDPDIKAHVNSLGENLKTLRLRLRRCHRFLPCENKSKAVEQVKNAFNKLQEKGIYKAMSEFDIFINYIEAYMTMGGVSGWRLFKKIS
B2: ORK10-003-HiBit N92E (ligand)
chain: B1 chain with N231E
B3: Foldikine10_cut116-CSF1-HiBit (ligand)
chain: NKSKAVEQVKNAFNKLQEKGIYKAMSEFDIFINYIEAYMTMNNGGLDYLPNMLRDLRDAFSRVKTFFQMKDQLDNLLLKESLLEDFKGYLGCQALSEMIQFYLEEVMPQAENQDPDIKAHVNSLGENLKTLRLRLRRNHRFLPCENKSKAVEQVKNAFNKLQEKGIYKAMSEFDIFINYIEAYMTMNNGGLDYLPNMLRDLRDAFSRVKTFFQMKDQLDNLLLKESLLEDFKGYLGCQALSEMIQFYLEEVMPQAENQDPDIKAHVNSLGENLKTLRLRLRRNHRFLPCEGGGGGSGGSGGSGGSGGSGGSGGSGGSGGGEEVSEYCSHMIGSGHLQSLQRLIDSQMETSCQITFEFVDQEQLKDPVCYLKKAFLLVQDIMEDTMRFRDNTPNAIAIVQLQELSLRLKSCFTKDYEEHDKACVRTFYETPLQLLEKVKNVFNETKNLLDKDWNIFSKNCNNSFAECSSQDGGGVSGWRLFKKIS
B4: Foldikine10_cut116 (ligand)
chain: NKSKAVEQVKNAFNKLQEKGIYKAMSEFDIFINYIEAYMTMNNGGLDYLPNMLRDLRDAFSRVKTFFQMKDQLDNLLLKESLLEDFKGYLGCQALSEMIQFYLEEVMPQAENQDPDIKAHVNSLGENLKTLRLRLRRNHRFLPCENKSKAVEQVKNAFNKLQEKGIYKAMSEFDIFINYIEAYMTMNNGGLDYLPNMLRDLRDAFSRVKTFFQMKDQLDNLLLKESLLEDFKGYLGCQALSEMIQFYLEEVMPQAENQDPDIKAHVNSLGENLKTLRLRLRRNHRFLPCE
B5: Foldikine10-CSF1-HiBit (ligand)
chain: MTQSENSCTHFPGNLPNMLRDLRDAFSRVKTFFQMKDQLDNLLLKESLLEDFKGYLGCQALSEMIQFYLEEVMPQAENQEPDIKAHVNSLGENLKTLRLRLRRCHRFLPCENKSKAVEQVKNAFNKLQEKGIYKAMSEFDIFINYIEAYMTMNNGGLDYLPNMLRDLRDAFSRVKTFFQMKDQLDNLLLKESLLEDFKGYLGCQALSEMIQFYLEEVMPQAENQDPDIKAHVNSLGENLKTLRLRLRRNHRFLPCENKSKAVEQVKNAFNKLQEKGIYKAMSEFDIFINYIEAYMTMKIRNGGGGGSGGSGGSGGSGGSGGSGGSGGSGGGEEVSEYCSHMIGSGHLQSLQRLIDSQMETSCQITFEFVDQEQLKDPVCYLKKAFLLVQDIMEDTMRFRDNTPNAIAIVQLQELSLRLKSCFTKDYEEHDKACVRTFYETPLQLLEKVKNVFNETKNLLDKDWNIFSKNCNNSFAECSSQDGGVSGWRLFKKIS
B6: CSF1-Foldikine10_cut116-HiBit (ligand)
chain: EEVSEYCSHMIGSGHLQSLQRLIDSQMETSCQITFEFVDQEQLKDPVCYLKKAFLLVQDIMEDTMRFRDNTPNAIAIVQLQELSLRLKSCFTKDYEEHDKACVRTFYETPLQLLEKVKNVFNETKNLLDKDWNIFSKNCNNSFAECSSQDGGGGGSGGSGGSGGSGGSGGSGGSGGSGGGMTQSENSCTHFPGNLPNMLRDLRDAFSRVKTFFQMKDQLDNLLLKESLLEDFKGYLGCQALSEMIQFYLEEVMPQAENQEPDIKAHVNSLGENLKTLRLRLRRCHRFLPCENKSKAVEQVKNAFNKLQEKGIYKAMSEFDIFINYIEAYMTMNNGGLDYLPNMLRDLRDAFSRVKTFFQMKDQLDNLLLKESLLEDFKGYLGCQALSEMIQFYLEEVMPQAENQDPDIKAHVNSLGENLKTLRLRLRRNHRFLPCENKSKAVEQVKNAFNKLQEKGIYKAMSEFDIFINYIEAYMTMKIRNGGVSGWRLFKKIS
B7: CSF1-IL10-HiBit (ligand)
chain: EEVSEYCSHMIGSGHLQSLQRLIDSQMETSCQITFEFVDQEQLKDPVCYLKKAFLLVQDIMEDTMRFRDNTPNAIAIVQLQELSLRLKSCFTKDYEEHDKACVRTFYETPLQLLEKVKNVFNETKNLLDKDWNIFSKNCNNSFAECSSQDGGGGGSGGSGGSGGSGGSGGSGGSGGSGGGSPGQGTQSENSCTHFPGNLPNMLRDLRDAFSRVKTFFQMKDQLDNLLLKESLLEDFKGYLGCQALSEMIQFYLEEVMPQAENQDPDIKAHVNSLGENLKTLRLRLRRCHRFLPCENKSKAVEQVKNAFNKLQEKGIYKAMSEFDIFINYIEAYMTMKIRNGGVSGWRLFKKIS
B8: CSF1-35AA-Foldikine10-HiBit (ligand)
chain: EEVSEYCSHMIGSGHLQSLQRLIDSQMETSCQITFEFVDQEQLKDPVCYLKKAFLLVQDIMEDTMRFRDNTPNAIAIVQLQELSLRLKSCFTKDYEEHDKACVRTFYETPLQLLEKVKNVFNETKNLLDKDWNIFSKNCNNSFAECSSQDGGGGGSGGGGSGGSGGSGGSGGSGGSGGSGGSGGGMTQSENSCTHFPGNLPNMLRDLRDAFSRVKTFFQMKDQLDNLLLKESLLEDFKGYLGCQALSEMIQFYLEEVMPQAENQEPDIKAHVNSLGENLKTLRLRLRRCHRFLPCENKSKAVEQVKNAFNKLQEKGIYKAMSEFDIFINYIEAYMTMNNGGLDYLPNMLRDLRDAFSRVKTFFQMKDQLDNLLLKESLLEDFKGYLGCQALSEMIQFYLEEVMPQAENQDPDIKAHVNSLGENLKTLRLRLRRNHRFLPCENKSKAVEQVKNAFNKLQEKGIYKAMSEFDIFINYIEAYMTMKIRNGGVSGWRLFKKIS
B9: IL-10-CSF1-HiBit (ligand)
chain: SPGQGTQSENSCTHFPGNLPNMLRDLRDAFSRVKTFFQMKDQLDNLLLKESLLEDFKGYLGCQALSEMIQFYLEEVMPQAENQDPDIKAHVNSLGENLKTLRLRLRRCHRFLPCENKSKAVEQVKNAFNKLQEKGIYKAMSEFDIFINYIEAYMTMKIRNGGGGGSGGSGGSGGSGGSGGSGGSGGSGGGEEVSEYCSHMIGSGHLQSLQRLIDSQMETSCQITFEFVDQEQLKDPVCYLKKAFLLVQDIMEDTMRFRDNTPNAIAIVQLQELSLRLKSCFTKDYEEHDKACVRTFYETPLQLLEKVKNVFNETKNLLDKDWNIFSKNCNNSFAECSSQDGGVSGWRLFKKIS

Assays:
Experiment in all cases: cell-based or functional assay
IL10RB = target: T1, IL10RB
IL10RA = target: T2, IL10RA
[1] = target: T3, IL-10 receptor (IL-10R: IL10RA and …)
CSF1 receptor (CSF1R) [2] = target: T4, CSF1 receptor (CSF1R) (UniProt P07333 20-972, limits assumed)
T4 sequence (P07333 20-972 limits assumed): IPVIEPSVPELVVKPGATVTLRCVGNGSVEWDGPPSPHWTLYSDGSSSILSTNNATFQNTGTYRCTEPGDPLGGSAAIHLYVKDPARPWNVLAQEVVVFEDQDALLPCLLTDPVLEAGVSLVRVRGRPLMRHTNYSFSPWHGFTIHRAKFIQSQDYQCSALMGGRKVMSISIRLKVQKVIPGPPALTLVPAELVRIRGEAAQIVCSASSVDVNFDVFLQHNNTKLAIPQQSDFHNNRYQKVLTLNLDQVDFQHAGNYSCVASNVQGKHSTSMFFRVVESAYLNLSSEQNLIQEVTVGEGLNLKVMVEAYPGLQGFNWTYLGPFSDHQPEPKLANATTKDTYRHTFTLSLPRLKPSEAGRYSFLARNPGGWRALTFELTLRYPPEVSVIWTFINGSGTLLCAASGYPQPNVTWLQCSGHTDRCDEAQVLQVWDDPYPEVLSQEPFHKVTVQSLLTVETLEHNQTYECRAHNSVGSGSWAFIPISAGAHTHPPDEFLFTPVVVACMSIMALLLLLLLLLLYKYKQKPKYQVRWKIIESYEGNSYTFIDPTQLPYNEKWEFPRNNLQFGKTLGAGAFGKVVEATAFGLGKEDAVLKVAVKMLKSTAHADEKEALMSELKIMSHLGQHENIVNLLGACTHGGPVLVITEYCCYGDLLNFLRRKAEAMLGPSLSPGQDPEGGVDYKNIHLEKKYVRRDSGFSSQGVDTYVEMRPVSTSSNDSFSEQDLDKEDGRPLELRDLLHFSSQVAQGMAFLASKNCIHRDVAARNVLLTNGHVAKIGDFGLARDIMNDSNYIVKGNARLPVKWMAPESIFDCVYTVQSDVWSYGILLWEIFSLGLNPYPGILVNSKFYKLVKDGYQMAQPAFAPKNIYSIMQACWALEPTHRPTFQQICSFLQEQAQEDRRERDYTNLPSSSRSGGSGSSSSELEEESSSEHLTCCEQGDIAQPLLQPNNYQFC

[3] = target: T3, IL-10 receptor (IL-10R: IL10RA and …); remark: listed apart in the source
CSF1 receptor (CSF1R) [4] = target: T4, CSF1 receptor (CSF1R); remark: listed apart in the source
[5] = target: T3, IL-10 receptor (IL-10R: IL10RA and …); remark: listed apart in the source

Binder | IL-10 EC-50, HEK-Blue IL-10 reporter cells [1] | CSF1 EC-50, HEK293 CSF1R/SRE reporter (CSF1 receptor (CSF1R) [2]) | IL-10 EC-50, HEK-Blue IL-10 reporter cells [3] | other results
B1 |  |  |  | EC-50, HEK-Blue IL-10 reporter cells (IL10RB): 9.53e-11; EC-50, HEK-Blue IL-10 reporter cells (IL10RA): 9.44e-11
B2 |  |  |  | EC-50, HEK-Blue IL-10 reporter cells (IL10RB): 1.19e-10
B3 | 4.95e-10 |  |  | 
B4 | 2.41e-10 |  |  | 
B5 |  | 3.18e-09 | 1.36e-09 | 
B6 | 3.06e-10 |  |  | 
B7 |  | 7.81e-10 | 1.16e-09 | 
B8 |  |  |  | EC-50 for CSF1 activity, HEK293 CSF1R/SRE reporter (CSF1 receptor (CSF1R) [4]): 1.83e-09; EC-50 for IL10 activity, HEK-Blue IL-10 reporter cells [5]: 3.18e-10
B9 |  | 4.64e-09 | 5.9e-09 | 
